# What was measured:
# [1] = target: mouse PD-1 (mPD-1) on transfected CHO cells (mouse) (UniProt Q02242); experiment: flow cytometry on CHO cells transfected with mPD-1 (CHO-mPD-1); anti-mIgG Fc-FITC against SSC-H
# [2] = target: monkey (rhesus macaque) PD-1 (rmPD-1) on transfected CHO cells (rhesus macaque); experiment: flow cytometry on CHO cells transfected with rmPD-1 (CHO-rmPD-1); anti-mIgG Fc-FITC against SSC-H
# [3] = target: chimeric (mouse and human) PD-1 (chiPD-1) on transfected CHO cells (chimeric (mouse and human)); experiment: flow cytometry on CHO cells transfected with chiPD-1 (CHO-chiPD-1); anti-mIgG Fc-FITC against SSC-H
# Sequence of chimeric (mouse and human) PD-1 (chiPD-1) on transfected CHO cells (chimeric (mouse and human)) (chain, as listed by the source mutant limits assumed): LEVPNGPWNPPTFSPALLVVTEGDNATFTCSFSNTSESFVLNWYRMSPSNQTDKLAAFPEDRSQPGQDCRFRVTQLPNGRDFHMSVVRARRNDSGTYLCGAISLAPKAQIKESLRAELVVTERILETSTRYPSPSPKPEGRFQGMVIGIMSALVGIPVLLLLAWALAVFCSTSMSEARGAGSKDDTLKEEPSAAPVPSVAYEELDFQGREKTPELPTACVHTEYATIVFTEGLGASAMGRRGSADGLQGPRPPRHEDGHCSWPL
# Sequence of monkey (rhesus macaque) PD-1 (rmPD-1) on transfected CHO cells (rhesus macaque) (Q15116 other isoform, or with tags, fused parts or gaps limits assumed): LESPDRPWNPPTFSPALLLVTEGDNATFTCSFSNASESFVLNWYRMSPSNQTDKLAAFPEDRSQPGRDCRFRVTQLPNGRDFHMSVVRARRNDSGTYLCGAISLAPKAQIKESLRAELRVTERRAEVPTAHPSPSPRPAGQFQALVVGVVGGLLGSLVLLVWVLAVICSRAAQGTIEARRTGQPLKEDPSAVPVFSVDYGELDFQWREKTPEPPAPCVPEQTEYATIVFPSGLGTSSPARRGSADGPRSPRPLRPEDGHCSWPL
# Sequence of mouse PD-1 (mPD-1) on transfected CHO cells (mouse) (Q02242 25-288 limits assumed): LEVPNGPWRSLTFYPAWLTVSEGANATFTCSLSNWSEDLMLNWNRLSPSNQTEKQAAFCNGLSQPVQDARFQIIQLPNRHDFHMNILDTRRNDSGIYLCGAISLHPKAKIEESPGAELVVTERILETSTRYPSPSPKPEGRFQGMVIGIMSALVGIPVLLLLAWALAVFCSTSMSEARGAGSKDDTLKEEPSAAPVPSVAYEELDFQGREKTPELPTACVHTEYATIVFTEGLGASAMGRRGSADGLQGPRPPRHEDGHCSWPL
substance,measurement,setting,value
NC,% cells positive for Anti-mouse-IgGFc-FITC,[1],0.346%
same,% cells positive for Anti-mouse-IgGFc-FITC,[2],0.812%
same,% cells positive for Anti-mouse-IgGFc-FITC,[3],2.79%

# Reference: patent US20250034256A1 (EUCURE BEIJING BIOPHARMA, published 2025)
